From patent publication US20100278801A1 (published 2010)

Legend:
120-G564S/320.1 [1] = test: biotin-ligand binding
[2] = biological target: HFD300.1 (HFD300-132K) Wild Type; test: Eu-ligand saturation binding
HFD300.1 = test: 125I-ligand binding
120-G564S/320.1 [3] = test: Eu-ligand binding

B1: HB-EGF-biotin (ligand)
chain: DLQEADLDLLRVTLSSKPQALATPNKEEHGKRKKKGKGLGKKRDPCLRKYKDFCIHGECKYVKELRAPSCICHPGYHGERCHGLSL
- Kd (120-G564S/320.1 [1]): 0.211 nM

B2: Eu-NRG1β1 (ligand)
chain: SHLVKCAEKEKTFCVNGGECFMVKDLSNPSRYLCKCPNEFTGDRCQNYVMASFYKHLGIEFMEAE
- Kd [2]: 3.11 nM

B3: NRG1β (ligand)
chain: SHLVKCAEKEKTFCVNGGECFMVKDLSNPSRYLCKCPNEFTGDRCQNYVMASFYKHLGIEFMEAE
- Kd (HFD300.1): 12.1 nM

B4: EU-EGF (ligand)
chain: NSDSECPLSHDGYCLHDGVCMYIEALDKYACNCVVGYIGERCQYRDLKWWELR
- Kd (120-G564S/320.1 [3]): 0.877 nM
